This note sets out measurements from US20210130428A1 (Novartis, published 2021).

Test [1] deals with T1, human BMP6 (Bone Morphogenetic Protein 6) (human, UniProt P22004 382-513, limits assumed).
T1 sequence (looked up): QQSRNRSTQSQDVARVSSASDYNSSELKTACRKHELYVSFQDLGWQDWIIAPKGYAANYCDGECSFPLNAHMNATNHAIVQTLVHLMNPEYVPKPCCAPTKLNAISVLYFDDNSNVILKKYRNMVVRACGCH
In words: cell-based or functional assay.

Test [2] deals with T2, human BMP7 (Bone Morphogenetic Protein 7) (human, UniProt P18075 293-431).
T2 sequence (looked up): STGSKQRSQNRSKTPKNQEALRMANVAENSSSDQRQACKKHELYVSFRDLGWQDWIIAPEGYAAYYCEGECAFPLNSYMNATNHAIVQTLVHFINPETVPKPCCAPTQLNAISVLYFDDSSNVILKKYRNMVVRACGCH
In words: cell-based or functional assay.

The target of test [3] is T3, human BMP5 (Bone Morphogenetic Protein 5) (human, UniProt P22003 317-454, limits assumed).
T3 sequence (looked up): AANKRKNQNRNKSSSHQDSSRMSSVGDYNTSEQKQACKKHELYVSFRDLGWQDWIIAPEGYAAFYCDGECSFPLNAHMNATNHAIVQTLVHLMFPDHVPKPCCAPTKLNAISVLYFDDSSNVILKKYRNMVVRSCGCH
Kind of test: cell-based or functional assay.

For test [4], the target named is human BMP2 (Bone Morphogenetic Protein 2) (human, UniProt P12643 283-396). In words: cell-based or functional assay.
The target of test [5] is T1, human BMP6 (Bone Morphogenetic Protein …). Kind of test: cell-based or functional assay. This is another data set of the same source.
The target is the same in test [6]. In words: cell-based or functional assay. This is another data set of the same source.
The target is the same in test [7]. In words: method not stated (Table 8, KD(nM) BMP6).
The target of test [8] is human BMP7 (Bone Morphogenetic Protein 7) (human) (UniProt P18075). In words: ELISA binding assay. (In an ELISA, binding on a coated surface is turned into a signal by an enzyme label.)
Test [9] has the same target. In words: cell-based or functional assay.
In a further test the target is T4, hBaffR (human, UniProt Q96RJ3).
T4 construct: Unrelated control antigen no
T4 sequence (control antigen, looked up): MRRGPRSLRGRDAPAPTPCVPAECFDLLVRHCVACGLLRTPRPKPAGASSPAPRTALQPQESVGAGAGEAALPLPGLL
In words: ELISA binding assay, fluorescence signal intensity (anti-Fab-AP detection); antibody concentration not given.

The target of a further test is T5, BSA (bovine, UniProt P02769).
T5 construct: Unrelated control antigen no
The description is as above.

Test [10] deals with T3, human BMP5 (Bone Morphogenetic Protein …). Described as above.
Another test concerns the target T6, Mouse BMP6 (mouse, UniProt P20722).
T6 construct: Antigen no
T6 sequence (ligand, looked up): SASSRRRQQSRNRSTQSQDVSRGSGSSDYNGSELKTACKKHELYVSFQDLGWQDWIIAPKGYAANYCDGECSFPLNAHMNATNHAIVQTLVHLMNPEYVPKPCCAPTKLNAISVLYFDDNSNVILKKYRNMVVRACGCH
Kind of test: ELISA binding assay, fluorescence signal intensity (anti-Fab-AP detection); one bar per antigen, antibody concentration not given.

Sequence of human BMP2 (Bone Morphogenetic Protein 2) (P12643 283-396 limits assumed): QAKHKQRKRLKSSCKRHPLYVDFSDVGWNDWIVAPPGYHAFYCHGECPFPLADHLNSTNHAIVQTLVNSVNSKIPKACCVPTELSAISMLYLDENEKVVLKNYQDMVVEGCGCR
T5 sequence (P02769 25-607 limits assumed): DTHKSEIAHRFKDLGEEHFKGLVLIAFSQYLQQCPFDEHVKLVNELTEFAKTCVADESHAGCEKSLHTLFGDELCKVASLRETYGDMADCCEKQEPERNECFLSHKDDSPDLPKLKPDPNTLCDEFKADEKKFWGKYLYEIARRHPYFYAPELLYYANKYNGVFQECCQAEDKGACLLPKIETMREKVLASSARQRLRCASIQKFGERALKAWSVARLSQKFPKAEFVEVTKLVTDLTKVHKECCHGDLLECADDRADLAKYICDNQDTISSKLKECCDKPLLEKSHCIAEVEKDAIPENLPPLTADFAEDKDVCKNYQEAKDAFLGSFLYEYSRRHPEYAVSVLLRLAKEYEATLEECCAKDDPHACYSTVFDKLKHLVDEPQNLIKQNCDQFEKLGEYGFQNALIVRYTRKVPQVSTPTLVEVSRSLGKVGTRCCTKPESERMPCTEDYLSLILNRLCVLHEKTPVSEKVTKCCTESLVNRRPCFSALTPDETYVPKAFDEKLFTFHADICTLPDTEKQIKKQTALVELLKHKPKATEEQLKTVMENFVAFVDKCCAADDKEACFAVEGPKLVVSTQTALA

B1: Antibody 5 (antibody, human IgG1, lambda, V domains shown)
VH: QVQLVESGGGLVKPGGSLRLSCAASGFTFSSYVVHWVRQAPGKGLEWVGRIKRESSSYTTMYAAPVKGRFTISRDDSKNTLYLQMNSLKTEDTAVYYCARVERSKSGFDNWGQGTLVTVSS
VL: QSVLTQPPSVSGAPGQRVTISCTGSSSNIGAGYSVHWYQQLPGTAPKLLIYGQSERPSGVPDRFSGSKSGTSASLAITGLQAEDEADYYCQSWDSSQTLVVFGGGTKLTVLG
notes: also called Ab 5
As usually defined, the Kd is the concentration at which binding is half-saturated. With B1, the “IC50, BMP reporter (BRE-luc) activity in Hep3B” value (from here on “IC50, BMP reporter”) in [1] stood at 0.4 nM. Besides, the “selectivity window against BMP6, BMP reporter gene assay” value in test [2], in test [3] and in test [4] was no less than 500 fold throughout. For the same molecule, the “IC50(ug/ml) BMP6 reporter” value in [5] was 0.06 µg/mL. The “IC50 (read off the curve), BMP reporter gene assay [panel Ab5]” value in test [6] was roughly 0.5 nM. The molecule also had a Kd in [7] of 0.1 nM.

B2: Antibody 6 (antibody, human IgG1, lambda, V domains shown)
VH: QVQLVESGGGLVKPGGSLRLSCAASGFTFSSYVVHWVRQAPGKGLEWVGRTRHSDMGYATSYAAPVKGRFTISRDDSKNTLYLQMNSLKTEDTAVYYCARVERSKSGFDNWGQGTLVTVSS
VL: QSVLTQPPSVSGAPGQRVTISCTGSSSNIGAGYSVHWYQQLPGTAPKLLIYGQSERPSGVPDRFSGSKSGTSASLAITGLQAEDEADYYCQSWDSSQTLVVFGGGTKLTVLG
notes: also called Ab 6
With B2, the “IC50, BMP reporter” value in test [1] was 0.4 nM. The “selectivity window against BMP6, BMP reporter gene assay” value in test [2], in [3] and in test [4] was no less than 500 fold each time. In addition, the “IC50(ug/ml) BMP6 reporter” value in test [5] came to 0.08 µg/mL. Also, the “IC50 (read off the curve), BMP reporter gene assay [panel Ab6]” value in test [6] is roughly 0.5 nM. The same molecule yielded a Kd in test [7] of less than 0.1 nM.

B3: Antibody 7 (antibody, human IgG1, lambda, V domains shown)
VH: QVQLVESGGGLVKPGGSLRLSCAASGFTFSSYVVHWVRQAPGKGLEWVGRIRLETHGYAAEYAASVKGRFTISRDDSKNTLYLQMNSLKTEDTAVYYCARVERSKSGFDNWGQGTLVTVSS
VL: QSVLTQPPSVSGAPGQRVTISCTGSSSNIGAGYSVHWYQQLPGTAPKLLIYGQSERPSGVPDRFSGSKSGTSASLAITGLQAEDEADYYCQSWDSSQTLVVFGGGTKLTVLG
notes: also called Ab 7; Ab7
As for B3, in [8], the selectivity, affinity to human BMP6 over affinity to human BMP7 is greater than 500 fold. Further, the selectivity window against BMP6, BMP reporter gene assay was greater than 500 fold in [9], no less than 500 fold in test [3] and no less than 500 fold in test [4]. Besides, the “IC50, BMP reporter” value in test [1] was found to be 0.4 nM. The “IC50(ug/ml) BMP6 reporter” value in [5] is 0.07 µg/mL. In addition, the “IC50 (read off the curve), BMP reporter gene assay [panel Ab7]” value in test [6] is roughly 0.5 nM. The molecule also yielded a Kd in [7] of 0.1 nM. Besides, the binding result is recorded as “no binding” with hBaffR, “no binding” in the test with BSA, “no binding” in test [10] and “binds” with Mouse BMP6.
